In patent US20160319032A1 (MEDLMMUNE, published 2016):

Tests used:
[1] = molecular target: T1, human αVβ6 integrin on cells (human, UniProt P06756 31-1048; P18564 22-788); test: cell-based or functional assay
[2] = molecular target: T1, human αVβ6 integrin on cells; test: cell-based or functional assay; remark: listed apart in the source
[3] = molecular target: human αV on parental A375M cells (αVβ3 and αVβ5 integrins) (human, UniProt P06756 31-1048); test: cell-based or functional assay
[4] = molecular target: α4β1 integrin on J6.77 cells (UniProt P13612 34-1032; P05556 21-798); test: cell-based or functional assay
[5] = molecular target: α5β1 integrin on K562 cells (UniProt P08648 42-1049; P05556 21-798); test: cell-based or functional assay
[6] = molecular target: T1, human αVβ6 integrin on cells; test: cell-based or functional assay; remark: listed apart in the source
[7] = molecular target: T2, mouse αV on transfected HEK-293 cells (mouse, UniProt P43406 31-1044); test: FACS, purified mAb, transfected HEK-293 (parental: 49)
T2 construct: whole, on cells; Transfected alone into human HEK-293 cells; also called Mouse alpha V

[8] = molecular target: T1, human αVβ6 integrin on cells; test: FMAT, supernatant, HEK 293 cells stably overexpressing αVβ6

T1 sequence (P06756 31-1048, chain 1 of 2): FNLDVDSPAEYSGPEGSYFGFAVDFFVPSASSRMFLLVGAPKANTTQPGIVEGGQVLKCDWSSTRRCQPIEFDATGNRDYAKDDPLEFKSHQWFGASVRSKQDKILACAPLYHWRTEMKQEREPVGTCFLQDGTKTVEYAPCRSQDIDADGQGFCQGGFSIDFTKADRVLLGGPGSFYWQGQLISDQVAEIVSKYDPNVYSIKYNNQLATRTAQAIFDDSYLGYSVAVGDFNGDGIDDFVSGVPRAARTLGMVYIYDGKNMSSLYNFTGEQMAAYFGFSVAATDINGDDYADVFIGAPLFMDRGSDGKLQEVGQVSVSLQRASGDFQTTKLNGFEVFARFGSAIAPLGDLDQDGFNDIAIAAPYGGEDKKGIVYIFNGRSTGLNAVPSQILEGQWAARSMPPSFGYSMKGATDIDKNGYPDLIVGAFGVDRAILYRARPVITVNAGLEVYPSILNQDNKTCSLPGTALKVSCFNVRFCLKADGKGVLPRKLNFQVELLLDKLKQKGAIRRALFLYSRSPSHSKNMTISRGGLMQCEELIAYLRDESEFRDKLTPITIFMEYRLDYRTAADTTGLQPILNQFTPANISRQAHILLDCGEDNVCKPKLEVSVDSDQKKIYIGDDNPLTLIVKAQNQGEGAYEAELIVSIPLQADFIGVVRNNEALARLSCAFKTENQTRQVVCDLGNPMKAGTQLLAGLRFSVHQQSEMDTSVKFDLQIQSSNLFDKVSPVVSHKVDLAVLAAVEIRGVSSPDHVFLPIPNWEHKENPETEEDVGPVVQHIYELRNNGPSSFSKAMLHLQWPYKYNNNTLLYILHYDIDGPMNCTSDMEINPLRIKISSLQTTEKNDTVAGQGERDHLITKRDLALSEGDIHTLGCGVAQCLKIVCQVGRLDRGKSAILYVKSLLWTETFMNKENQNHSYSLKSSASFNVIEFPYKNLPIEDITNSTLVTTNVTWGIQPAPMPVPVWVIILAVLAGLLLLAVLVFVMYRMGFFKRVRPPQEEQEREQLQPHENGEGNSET
T1 sequence (P18564 22-788, chain 2 of 2): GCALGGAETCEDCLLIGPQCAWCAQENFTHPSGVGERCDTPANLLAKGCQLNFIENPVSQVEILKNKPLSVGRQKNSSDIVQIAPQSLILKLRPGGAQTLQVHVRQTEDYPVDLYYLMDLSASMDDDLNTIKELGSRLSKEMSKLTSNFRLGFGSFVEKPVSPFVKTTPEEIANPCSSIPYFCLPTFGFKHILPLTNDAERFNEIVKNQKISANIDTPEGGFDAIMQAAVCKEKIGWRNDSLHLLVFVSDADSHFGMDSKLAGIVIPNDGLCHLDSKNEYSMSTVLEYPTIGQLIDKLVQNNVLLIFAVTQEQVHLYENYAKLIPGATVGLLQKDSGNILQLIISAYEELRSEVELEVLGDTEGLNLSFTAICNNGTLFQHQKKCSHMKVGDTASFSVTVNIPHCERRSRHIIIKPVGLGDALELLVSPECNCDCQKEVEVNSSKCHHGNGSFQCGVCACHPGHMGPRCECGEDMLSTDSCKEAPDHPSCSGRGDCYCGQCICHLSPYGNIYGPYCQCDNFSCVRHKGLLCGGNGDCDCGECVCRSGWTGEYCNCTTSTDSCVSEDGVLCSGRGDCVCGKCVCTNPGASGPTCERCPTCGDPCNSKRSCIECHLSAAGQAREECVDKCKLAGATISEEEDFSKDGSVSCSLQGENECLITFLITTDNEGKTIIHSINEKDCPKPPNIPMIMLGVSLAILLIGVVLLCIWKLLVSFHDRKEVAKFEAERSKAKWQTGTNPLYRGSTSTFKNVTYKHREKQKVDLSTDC
human αV on parental A375M cells (αVβ3 and αVβ5 integrins), sequence (P06756 31-1048 A375M, form in doubt): as the sequence (P06756 31-1048, chain 1 of 2) above, with A345M counted along it
α5β1 integrin on K562 cells, sequence (P08648 42-1049, chain 1 of 2): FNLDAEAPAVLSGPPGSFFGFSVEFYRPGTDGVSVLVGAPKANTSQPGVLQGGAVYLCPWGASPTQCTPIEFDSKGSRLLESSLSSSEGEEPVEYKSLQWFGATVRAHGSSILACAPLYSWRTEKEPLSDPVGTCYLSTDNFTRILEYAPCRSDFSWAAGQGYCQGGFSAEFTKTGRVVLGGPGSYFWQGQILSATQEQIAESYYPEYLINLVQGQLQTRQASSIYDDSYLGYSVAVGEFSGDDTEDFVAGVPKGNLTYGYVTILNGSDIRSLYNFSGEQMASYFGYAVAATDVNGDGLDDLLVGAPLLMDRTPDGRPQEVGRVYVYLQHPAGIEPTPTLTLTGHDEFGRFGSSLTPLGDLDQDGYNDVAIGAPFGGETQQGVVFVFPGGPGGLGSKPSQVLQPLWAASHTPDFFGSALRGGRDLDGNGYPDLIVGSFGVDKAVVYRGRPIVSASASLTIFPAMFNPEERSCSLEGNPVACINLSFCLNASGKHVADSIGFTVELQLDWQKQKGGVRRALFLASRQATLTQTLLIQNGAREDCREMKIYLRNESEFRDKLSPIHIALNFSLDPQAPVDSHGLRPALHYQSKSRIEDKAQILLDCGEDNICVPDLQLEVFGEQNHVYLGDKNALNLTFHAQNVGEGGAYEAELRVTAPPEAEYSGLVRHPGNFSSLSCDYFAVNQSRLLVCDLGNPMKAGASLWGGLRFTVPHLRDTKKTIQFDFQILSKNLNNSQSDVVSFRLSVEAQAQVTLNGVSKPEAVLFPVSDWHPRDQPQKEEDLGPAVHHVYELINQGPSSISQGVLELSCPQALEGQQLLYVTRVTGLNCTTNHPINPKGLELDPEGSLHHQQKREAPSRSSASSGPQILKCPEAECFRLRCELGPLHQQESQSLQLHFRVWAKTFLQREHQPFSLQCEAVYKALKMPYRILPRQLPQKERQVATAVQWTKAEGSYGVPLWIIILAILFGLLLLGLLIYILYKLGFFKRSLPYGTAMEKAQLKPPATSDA
α5β1 integrin on K562 cells, sequence (P05556 21-798, chain 2 of 2): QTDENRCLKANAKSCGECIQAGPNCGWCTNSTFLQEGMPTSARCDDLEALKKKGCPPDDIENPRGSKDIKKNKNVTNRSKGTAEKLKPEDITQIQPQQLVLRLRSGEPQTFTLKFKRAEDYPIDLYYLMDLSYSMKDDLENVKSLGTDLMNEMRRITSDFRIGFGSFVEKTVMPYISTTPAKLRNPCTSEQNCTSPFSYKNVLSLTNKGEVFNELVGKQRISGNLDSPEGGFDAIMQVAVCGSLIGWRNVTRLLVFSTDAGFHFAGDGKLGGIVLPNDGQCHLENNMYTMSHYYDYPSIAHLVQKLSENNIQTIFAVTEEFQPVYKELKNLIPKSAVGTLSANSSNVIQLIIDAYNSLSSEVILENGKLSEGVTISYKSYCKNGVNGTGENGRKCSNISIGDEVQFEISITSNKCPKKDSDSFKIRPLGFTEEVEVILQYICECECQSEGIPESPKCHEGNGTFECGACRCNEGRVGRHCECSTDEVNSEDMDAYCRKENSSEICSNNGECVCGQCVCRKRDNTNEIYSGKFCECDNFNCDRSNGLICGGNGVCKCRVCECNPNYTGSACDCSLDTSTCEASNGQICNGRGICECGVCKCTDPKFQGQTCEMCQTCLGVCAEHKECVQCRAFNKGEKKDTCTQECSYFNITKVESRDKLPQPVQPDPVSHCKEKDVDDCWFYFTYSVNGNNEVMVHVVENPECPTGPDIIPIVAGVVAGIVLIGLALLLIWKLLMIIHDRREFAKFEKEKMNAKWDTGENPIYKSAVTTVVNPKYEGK
T2 sequence (P43406 31-1044): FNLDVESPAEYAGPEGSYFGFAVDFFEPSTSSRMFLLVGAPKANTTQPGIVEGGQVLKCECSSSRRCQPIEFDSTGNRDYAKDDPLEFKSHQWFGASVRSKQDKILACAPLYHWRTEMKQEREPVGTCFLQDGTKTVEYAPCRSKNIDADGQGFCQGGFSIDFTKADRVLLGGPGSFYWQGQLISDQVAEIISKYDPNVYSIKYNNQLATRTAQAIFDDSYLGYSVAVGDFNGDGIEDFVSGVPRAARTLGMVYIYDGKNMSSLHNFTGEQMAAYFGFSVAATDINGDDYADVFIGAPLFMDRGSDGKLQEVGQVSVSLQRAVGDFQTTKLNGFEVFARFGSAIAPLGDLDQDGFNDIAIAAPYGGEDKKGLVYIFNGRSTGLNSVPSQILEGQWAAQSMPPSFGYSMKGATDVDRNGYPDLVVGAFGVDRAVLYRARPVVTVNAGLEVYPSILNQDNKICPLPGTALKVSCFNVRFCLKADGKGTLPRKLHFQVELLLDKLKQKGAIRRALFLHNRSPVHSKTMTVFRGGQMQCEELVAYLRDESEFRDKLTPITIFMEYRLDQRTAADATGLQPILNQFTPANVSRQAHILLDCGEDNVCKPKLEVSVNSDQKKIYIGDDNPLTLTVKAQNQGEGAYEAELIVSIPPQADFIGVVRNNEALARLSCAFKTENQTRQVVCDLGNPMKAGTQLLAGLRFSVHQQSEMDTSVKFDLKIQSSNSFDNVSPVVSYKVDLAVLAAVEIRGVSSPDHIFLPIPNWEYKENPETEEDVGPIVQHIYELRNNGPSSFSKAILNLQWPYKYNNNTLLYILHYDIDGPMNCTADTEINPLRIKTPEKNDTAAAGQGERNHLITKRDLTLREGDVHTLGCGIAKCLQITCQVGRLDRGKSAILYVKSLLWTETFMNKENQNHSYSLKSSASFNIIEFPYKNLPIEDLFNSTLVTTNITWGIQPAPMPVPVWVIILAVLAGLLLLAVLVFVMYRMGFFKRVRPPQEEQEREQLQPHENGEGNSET

Assay 1 % Inhibition of adhesion [1]: 98%
Assay 2 % Inhibition of adhesion [1]: 102%
Average % Inhibition of adhesion [1]: 100%
Estimated IC50, adhesion assay, n = 1 [2]: 0.029 µg/mL
Estimated IC50, adhesion assay, n = 2 [2]: 0.025 µg/mL
Estimated IC50, adhesion assay, n = 3 [2]: 0.033 µg/mL
Percent Inhibition of A375M adhesion to osteopontin peptide, 5 ug/ml [3]: 9%
Percent Inhibition of J6.77 adhesion to CS-1 peptide, 5 ug/ml [4]: -7%
Percent Inhibition of K562 adhesion to FN9-10, 5 ug/ml [5]: 2%
Percent Internalization, 1 ug/mL [6]: 26%
Percent Internalization, 10 ug/mL [6]: 28%
percent of cells shifted [7]: 45%
FMAT FL1XCount [8]: 218000
B1: sc 298 (antibody, V domains shown)
VH: QVQLVESGGGVVQPGRSLRLSCAASGFTFSSYGMHWVRQAPGKGLEWVAVIWYGGSNKYYADSVKGRFTISRDNSKNTLYLQMNSLRAEDTAVYYCARDLAARRGDYYYYGMDVWGQGTTVTVSS
VL: SSELTQDPVVSVALGQTVRITCQGDSLRSYYLSWYQQKPGQAPVLVIYGKNNRPSGIPDRFSGSNSGNTASLTITGAQAEDEADYYCNSRDSSGNHLFGGGTKLTVL
notes: lambda light chain
